Ends that are not written are not given here. * marks the point of attachment. Biotin = O=C1N[C@H]2[C@H](CS[C@H]2CCCCC(=O)*)N1
Key:
Test in all cases: SPR
[1] = molecular target: T1, N-terminally biotinylated synthetic FLAG peptide, 4-residue variant (DYKD) (synthetic construct)
T1 chain: Biotin-DYKD

[2] = molecular target: T2, N-terminally biotinylated synthetic FLAG peptide, Asp5Glu (DYKDEDDK) (synthetic construct, point mutant, not fully specified (N-terminus))
T2 chain: DYKDEDDK

[3] = molecular target: T3, N-terminally biotinylated synthetic FLAG peptide, truncated, Asp5Glu (DYKDED) (synthetic construct, point mutant)
T3 chain: Biotin-DYKDED

[4] = molecular target: T4, N-terminally biotinylated synthetic FLAG peptide, wildtype (DYKDDDDK) (synthetic construct, not fully specified (N-terminus))
T4 chain: DYKDDDDK

[5] = molecular target: T5, N-terminally biotinylated synthetic FLAG peptide, six-residue truncated version (DYKDDD) (synthetic construct)
T5 chain: Biotin-DYKDDD

[6] = molecular target: T6, N-terminally biotinylated synthetic FLAG peptide, 5-residue variant (DYKDD) (synthetic construct)
T6 chain: Biotin-DYKDD

[7] = molecular target: T2, N-terminally biotinylated synthetic …
[8] = molecular target: T4, N-terminally biotinylated synthetic …
[9] = molecular target: T1, N-terminally biotinylated synthetic …
[10] = molecular target: T3, N-terminally biotinylated synthetic …
[11] = molecular target: T7, N-terminally biotinylated synthetic FLAG peptide truncated by one C-terminal residue (DYKDDDD) (synthetic construct)
T7 chain: Biotin-DYKDDDD

[12] = molecular target: T5, N-terminally biotinylated synthetic …
[13] = molecular target: T6, N-terminally biotinylated synthetic …
[14] = molecular target: T7, N-terminally biotinylated synthetic …

B1: anti-FLAG M2 IgG (wildtype, recombinant) (antibody, V domains shown)
VH: QVQLQQSAAELARPGASVKMSCKASGYSFTTYTIHWVKQRPGQGLEWIGYINPSSGYAAYNQNFKDETTLTADPSSSTAYMELNSLTSEDSAVYYCAREKFYGYDYWGQGATLTVSS
VL: DVLMTQIPLSLPVSLGDQASISCRSSQSIVHRNGNTYLEWYLLKPGQSPKLLIYKVSNRFSGVPDRFSGSGSGTDFTLKISRVEAEDLGVYYCFQGSHVPYTFGGGTKLEIR
In the case of B1, the “KD, first site (two-site binding model)” value [1] is reported as 52.9 ± 22.1 nM, the “KD, first site (two-site binding model)” value [2] is reported as 2.23 ± 0.25 nM and the “KD, first site (two-site binding model)” value [3] is reported as 10.2 ± 0.48 nM. The “KD, first site (two-site binding model)” value [4] was 2.95 ± 0.31 nM, the “KD, first site (two-site binding model)” value [5] was 9.72 ± 2.6 nM and the “KD, first site (two-site binding model)” value [6] was 154 ± 100 nM.

B2: anti-FLAG M2 Fab (wildtype, recombinant) (Fab, V domains shown)
VH: QVQLQQSAAELARPGASVKMSCKASGYSFTTYTIHWVKQRPGQGLEWIGYINPSSGYAAYNQNFKDETTLTADPSSSTAYMELNSLTSEDSAVYYCAREKFYGYDYWGQGATLTVSS
VL: DVLMTQIPLSLPVSLGDQASISCRSSQSIVHRNGNTYLEWYLLKPGQSPKLLIYKVSNRFSGVPDRFSGSGSGTDFTLKISRVEAEDLGVYYCFQGSHVPYTFGGGTKLEIR
For B2, the Kd [7] was 1780 ± 130 nM and the Kd [8] was 1910 ± 240 nM.

B3: anti-FLAG M2 Fab, heavy chain K100R (Fab, V domains shown)
VH: QVQLQQSAAELARPGASVKMSCKASGYSFTTYTIHWVKQRPGQGLEWIGYINPSSGYAAYNQNFKDETTLTADPSSSTAYMELNSLTSEDSAVYYCARERFYGYDYWGQGATLTVSS
VL: DVLMTQIPLSLPVSLGDQASISCRSSQSIVHRNGNTYLEWYLLKPGQSPKLLIYKVSNRFSGVPDRFSGSGSGTDFTLKISRVEAEDLGVYYCFQGSHVPYTFGGGTKLEIR
In the case of B3, the “fold drop in affinity against the wildtype Fab” value [9] is reported as roughly 20 fold, the “fold drop in affinity against the wildtype Fab” value [7] is reported as roughly 20 fold and the “fold drop in affinity against the wildtype Fab” value [10] is reported as roughly 20 fold. For the same binder, the “fold drop in affinity against the wildtype Fab” value [8] was roughly 20 fold, the “fold drop in affinity against the wildtype Fab” value [11] was roughly 20 fold and the “fold drop in affinity against the wildtype Fab” value [12] was roughly 20 fold. For the same binder, the “fold drop in affinity against the wildtype Fab” value [13] was roughly 20 fold.

B4: anti-FLAG M2 IgG, heavy chain K100R (antibody, V domains shown)
VH: QVQLQQSAAELARPGASVKMSCKASGYSFTTYTIHWVKQRPGQGLEWIGYINPSSGYAAYNQNFKDETTLTADPSSSTAYMELNSLTSEDSAVYYCARERFYGYDYWGQGATLTVSS
VL: DVLMTQIPLSLPVSLGDQASISCRSSQSIVHRNGNTYLEWYLLKPGQSPKLLIYKVSNRFSGVPDRFSGSGSGTDFTLKISRVEAEDLGVYYCFQGSHVPYTFGGGTKLEIR
In the case of B4, the “fold drop in affinity against the wildtype IgG” value [1] is reported as roughly 20 fold, the “fold drop in affinity against the wildtype IgG” value [2] is reported as roughly 20 fold and the “fold drop in affinity against the wildtype IgG” value [3] is reported as roughly 20 fold. For the same binder, the “fold drop in affinity against the wildtype IgG” value [4] was roughly 20 fold, the “fold drop in affinity against the wildtype IgG” value [14] was roughly 20 fold and the “fold drop in affinity against the wildtype IgG” value [5] was roughly 20 fold. The “fold drop in affinity against the wildtype IgG” value [6] was roughly 20 fold.

Source: publication doi:10.1101/2024.03.25.586599 (bioRxiv, 2024)
